# Changes are numbered by the printed parent chain. Names may count otherwise.
# B1: equine IgG7 K311Q mutant (antibody, part only; not given: Variable domains, not shown: another chain or arm of the molecule)
# constant: ASTTAPKVFPLASHSAATSGSTVALGCLVSSYFPEPVTVSWNSGALTSGVHTFPSVLQSSGLYSLSSMVTVPASSLKSQTYICNVAHPASSTKVDKKIVIKECGGCPTCPECLSVGPSVFIFPPKPKDVLMISRTPTVTCVVVDVGHDFPDVQFNWYVDGVETHTATTEPKQEQNNSTYRVVSILAIQHQDWLSGKEFKCKVNNQALPAPVQKTISKPTGQPREPQVYVLAPHRDELSKNKVSVTCLVKDFYPTDIDIEWKSNGQPEPETKYSTTPAQLDSDGSYFLYSKLTVETNRWQQGTTFTCAVMHEALHNHYTEKSVSKSPGK
# B2: equine IgG7 D312A mutant (antibody, part only; not given: Variable domains, not shown: another chain or arm of the molecule)
# constant: B1 constant with Q190K, D191A
# B3: equine IgG7 M428F mutant (antibody, part only; not given: variable domains, not shown: another chain or arm of the molecule)
# constant: B1 constant with Q190K, M309F
# B4: equine IgG7 A426R mutant (antibody, part only; not given: Variable domains, not shown: another chain or arm of the molecule)
# constant: B1 constant with Q190K, A307R
# B5: equine IgG7 A426E mutant (antibody, part only; not given: variable domains, not shown: another chain or arm of the molecule)
# constant: B1 constant with Q190K, A307E
# B6: equine IgG7 N434W mutant (antibody, part only; not given: variable domains, not shown: another chain or arm of the molecule)
# constant: B1 constant with Q190K, N315W
# B7: equine IgG7 M428W mutant (antibody, part only; not given: variable domains, not shown: another chain or arm of the molecule)
# constant: B1 constant with Q190K, M309W
# B8: equine IgG7 N434A mutant (antibody, part only; not given: variable domains, not shown: another chain or arm of the molecule)
# constant: B1 constant with Q190K, N315A
# B9: equine IgG7 A426Q mutant (antibody, part only; not given: variable domains, not shown: another chain or arm of the molecule)
# constant: B1 constant with Q190K, A307Q
# B10: equine IgG7 A426W mutant (antibody, part only; not given: variable domains, not shown: another chain or arm of the molecule)
# constant: B1 constant with Q190K, A307W
# B11: equine IgG7 A426M mutant (antibody, part only; not given: variable domains, not shown: another chain or arm of the molecule)
# constant: B1 constant with Q190K, A307M
# B12: equine IgG7 N434R mutant (antibody, part only; not given: Variable domains, not shown: another chain or arm of the molecule)
# constant: B1 constant with Q190K, N315R
# B13: equine IgG7 M428I mutant (antibody, part only; not given: variable domains, not shown: another chain or arm of the molecule)
# constant: B1 constant with Q190K, M309I
# B14: equine IgG7 D312E mutant (antibody, part only; not given: variable domains, not shown: another chain or arm of the molecule)
# constant: B1 constant with Q190K, D191E
# B15: equine IgG7 A426H mutant (antibody, part only; not given: variable domains, not shown: another chain or arm of the molecule)
# constant: B1 constant with Q190K, A307H
# B16: equine IgG7 M428G mutant (antibody, part only; not given: variable domains, not shown: another chain or arm of the molecule)
# constant: B1 constant with Q190K, M309G
# B17: equine IgG7 A426S mutant (antibody, part only; not given: variable domains, not shown: another chain or arm of the molecule)
# constant: B1 constant with Q190K, A307S
# B18: equine IgG7 N434G mutant (antibody, part only; not given: variable domains, not shown: another chain or arm of the molecule; small tags and cut ends)
# constant: B1 constant with Q190K, N315G
# B19: equine IgG7 D312C mutant (antibody, part only; not given: variable domains, not shown: another chain or arm of the molecule)
# constant: B1 constant with Q190K, D191C
# B20: equine IgG7 M428D mutant (antibody, part only; not given: variable domains, not shown: another chain or arm of the molecule)
# constant: B1 constant with Q190K, M309D
# B21: equine IgG7 K311T mutant (antibody, part only; not given: variable domains, not shown: another chain or arm of the molecule)
# constant: B1 constant with Q190T
# B22: equine IgG7 A426P mutant (antibody, part only; not given: variable domains, not shown: another chain or arm of the molecule)
# constant: B1 constant with Q190K, A307P
# B23: equine IgG7 M428R mutant (antibody, part only; not given: variable domains, not shown: another chain or arm of the molecule)
# constant: B1 constant with Q190K, M309R
# B24: equine IgG7 M428S mutant (antibody, part only; not given: variable domains, not shown: another chain or arm of the molecule)
# constant: B1 constant with Q190K, M309S
# B25: equine IgG7 A426V mutant (antibody, part only; not given: variable domains, not shown: another chain or arm of the molecule)
# constant: B1 constant with Q190K, A307V
# B26: equine IgG7 D312I mutant (antibody, part only; not given: variable domains, not shown: another chain or arm of the molecule)
# constant: B1 constant with Q190K, D191I
# B27: equine IgG7 N434S mutant (antibody, part only; not given: variable domains, not shown: another chain or arm of the molecule)
# constant: B1 constant with Q190K, N315S
# B28: equine IgG7 D312G mutant (antibody, part only; not given: Variable domains, not shown: another chain or arm of the molecule)
# constant: B1 constant with Q190K, D191G
# B29: equine IgG7 K311Y mutant (antibody, part only; not given: variable domains, not shown: another chain or arm of the molecule)
# constant: B1 constant with Q190Y
# B30: equine IgG7 M428C mutant (antibody, part only; not given: Variable domains, not shown: another chain or arm of the molecule)
# constant: B1 constant with Q190K, M309C
# B31: equine IgG7 A426F mutant (antibody, part only; not given: variable domains, not shown: another chain or arm of the molecule)
# constant: B1 constant with Q190K, A307F
# B32: equine IgG7 M428H mutant (antibody, part only; not given: variable domains, not shown: another chain or arm of the molecule)
# constant: B1 constant with Q190K, M309H
# B33: equine IgG7 N434T mutant (antibody, part only; not given: variable domains, not shown: another chain or arm of the molecule)
# constant: B1 constant with Q190K, N315T
# B34: equine IgG7 K311R mutant (antibody, part only; not given: variable domains, not shown: another chain or arm of the molecule)
# constant: B1 constant with Q190R
# B35: equine IgG7 A426D mutant (antibody, part only; not given: variable domains, not shown: another chain or arm of the molecule)
# constant: B1 constant with Q190K, A307D
# B36: equine IgG7 A426L mutant (antibody, part only; not given: Variable domains, not shown: another chain or arm of the molecule)
# constant: B1 constant with Q190K, A307L
# B37: equine IgG7 N434H mutant (antibody, part only; not given: Variable domains, not shown: another chain or arm of the molecule; small tags and cut ends)
# constant: B1 constant with Q190K, N315H
# B38: equine IgG7 N434E mutant (antibody, part only; not given: variable domains, not shown: another chain or arm of the molecule)
# constant: B1 constant with Q190K, N315E
# B39: equine IgG7 A426N mutant (antibody, part only; not given: Variable domains, not shown: another chain or arm of the molecule)
# constant: B1 constant with Q190K, A307N
# B40: equine IgG7 M428Q mutant (antibody, part only; not given: variable domains, not shown: another chain or arm of the molecule)
# constant: B1 constant with Q190K, M309Q
# B41: equine IgG7 A426I mutant (antibody, part only; not given: variable domains, not shown: another chain or arm of the molecule)
# constant: B1 constant with Q190K, A307I
# B42: equine IgG7 N434D mutant (antibody, part only; not given: variable domains, not shown: another chain or arm of the molecule)
# constant: B1 constant with Q190K, N315D
# B43: equine IgG7 A426T mutant (antibody, part only; not given: Variable domains, not shown: another chain or arm of the molecule)
# constant: B1 constant with Q190K, A307T
# B44: equine IgG7 A426G mutant (antibody, part only; not given: variable domains, not shown: another chain or arm of the molecule)
# constant: B1 constant with Q190K, A307G
# B45: equine IgG7 N434P mutant (antibody, part only; not given: Variable domains, not shown: another chain or arm of the molecule)
# constant: B1 constant with Q190K, N315P
# B46: equine IgG7 A426Y mutant (antibody, part only; not given: variable domains, not shown: another chain or arm of the molecule)
# constant: B1 constant with Q190K, A307Y
# B47: equine IgG7 N434V mutant (antibody, part only; not given: Variable domains, not shown: another chain or arm of the molecule)
# constant: B1 constant with Q190K, N315V
# B48: equine IgG7 D312F mutant (antibody, part only; not given: Variable domains, not shown: another chain or arm of the molecule)
# constant: B1 constant with Q190K, D191F
# B49: equine IgG7 M428L mutant (antibody, part only; not given: Variable domains, not shown: another chain or arm of the molecule)
# constant: B1 constant with Q190K, M309L
# B50: equine IgG7 K311S mutant (antibody, part only; not given: variable domains, not shown: another chain or arm of the molecule)
# constant: B1 constant with Q190S
# B51: equine IgG7 M428E mutant (antibody, part only; not given: variable domains, not shown: another chain or arm of the molecule)
# constant: B1 constant with Q190K, M309E
# B52: equine IgG7 A426K mutant (antibody, part only; not given: variable domains, not shown: another chain or arm of the molecule)
# constant: B1 constant with Q190K, A307K
# B53: equine IgG7 A426C mutant (antibody, part only; not given: variable domains, not shown: another chain or arm of the molecule)
# constant: B1 constant with Q190K, A307C
# B54: equine IgG7 N434F mutant (antibody, part only; not given: Variable domains, not shown: another chain or arm of the molecule; small tags and cut ends)
# constant: B1 constant with Q190K, N315F
# B55: equine IgG7 K311W mutant (antibody, part only; not given: variable domains, not shown: another chain or arm of the molecule)
# constant: B1 constant with Q190W
# B56: equine IgG7 N434K mutant (antibody, part only; not given: variable domains, not shown: another chain or arm of the molecule; small tags and cut ends)
# constant: B1 constant with Q190K, N315K
# B57: equine IgG7 M428K mutant (antibody, part only; not given: variable domains, not shown: another chain or arm of the molecule)
# constant: B1 constant with Q190K, M309K
# B58: equine IgG7 N434Y mutant (antibody, part only; not given: Variable domains, not shown: another chain or arm of the molecule)
# constant: B1 constant with Q190K, N315Y
# B59: equine IgG7 D312H mutant (antibody, part only; not given: variable domains, not shown: another chain or arm of the molecule)
# constant: B1 constant with Q190K, D191H
# B60: equine IgG7 N434C mutant (antibody, part only; not given: variable domains, not shown: another chain or arm of the molecule)
# constant: B1 constant with Q190K, N315C
# B61: equine IgG7 K311V mutant (antibody, part only; not given: variable domains, not shown: another chain or arm of the molecule)
# constant: B1 constant with Q190V
# Biological target: equine FcRn (large alpha subunit p51) in complex with equine beta-2-microglobulin (equine) (UniProt F6XZ61)
# UniProt F6XZ61, sequence (F6XZ61 entry or part of it, one chain of several): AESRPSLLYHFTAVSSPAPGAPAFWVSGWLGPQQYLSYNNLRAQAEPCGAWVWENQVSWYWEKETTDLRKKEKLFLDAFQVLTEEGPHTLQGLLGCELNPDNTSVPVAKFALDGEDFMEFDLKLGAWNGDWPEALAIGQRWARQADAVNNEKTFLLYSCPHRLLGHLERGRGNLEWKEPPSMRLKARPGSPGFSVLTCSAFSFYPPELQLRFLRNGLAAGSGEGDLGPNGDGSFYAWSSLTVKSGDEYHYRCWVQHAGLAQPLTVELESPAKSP
# Test: SPR (Biacore), pH 6
row,Binder,Kd
1,B1,39.5 nM
2,B2,17.6 nM
3,B3,23.9 nM
4,B4,35 nM
5,B5,13.4 nM
6,B6,1.3 nM
7,B7,6.6 nM
8,B8,36.4 nM
9,B9,18.6 nM
10,B10,24.1 nM
11,B11,22.7 nM
12,B12,273 nM
13,B13,240 nM
14,B14,42.5 nM
15,B15,18.4 nM
16,B16,96.9 nM
17,B17,40.4 nM
18,B18,7400 nM
19,B19,26.5 nM
20,B20,2000 nM
21,B21,19.4 nM

row,Binder,Kd
1,B22,23.2 nM
2,B23,1.2 nM
3,B24,5.8 nM
4,B25,23.3 nM
5,B26,15.2 nM
6,B27,114 nM
7,B28,38.4 nM
8,B29,18.9 nM
9,B30,14600 nM
10,B31,13.2 nM
11,B32,165 nM
12,B33,159 nM
13,B34,11.8 nM
14,B35,18.9 nM
15,B36,15.6 nM
16,B37,25.3 nM
17,B38,6.1 nM
18,B39,15.8 nM
19,B40,20 nM
20,B41,12.6 nM
21,B42,1.1 nM

row,Binder,Kd
1,B43,26.5 nM
2,B44,13.6 nM
3,B45,194 nM
4,B46,21.1 nM
5,B47,6700 nM
6,B48,8.6 nM
7,B49,10.5 nM
8,B50,27.6 nM
9,B51,39.8 nM
10,B52,17.8 nM
11,B53,14.4 nM
12,B54,7.4 nM
13,B55,22.1 nM
14,B56,31.7 nM
15,B57,63.5 nM
16,B58,3.7 nM
17,B59,10.4 nM
18,B60,2.5 nM
19,B61,21.3 nM

# Reference: patent publication US20260070987A1
